# Experimental data from IntAct's records for PubMed 24165795.
# B1: Phosphatidylinositol 4,5-bisphosphate 3-kinase catalytic subunit delta isoform (Homo sapiens), O00329 (parent)
# chain: MPPGVDCPMEFWTKEENQSVVVDFLLPTGVYLNFPVSRNANLSTIKQLLWHRAQYEPLFHMLSGPEAYVFTCINQTAEQQELEDEQRRLCDVQPFLPVLRLVAREGDRVKKLINSQISLLIGKGLHEFDSLCDPEVNDFRAKMCQFCEEAAARRQQLGWEAWLQYSFPLQLEPSAQTWGPGTLRLPNRALLVNVKFEGSEESFTFQVSTKDVPLALMACALRKKATVFRQPLVEQPEDYTLQVNGRHEYLYGSYPLCQFQYICSCLHSGLTPHLTMVHSSSILAMRDEQSNPAPQVQKPRAKPPPIPAKKPSSVSLWSLEQPFRIELIQGSKVNADERMKLVVQAGLFHGNEMLCKTVSSSEVSVCSEPVWKQRLEFDINICDLPRMARLCFALYAVIEKAKKARSTKKKSKKADCPIAWANLMLFDYKDQLKTGERCLYMWPSVPDEKGELLNPTGTVRSNPNTDSAAALLICLPEVAPHPVYYPALEKILELGRHSECVHVTEEEQLQLREILERRGSGELYEHEKDLVWKLRHEVQEHFPEALARLLLVTKWNKHEDVAQMLYLLCSWPELPVLSALELLDFSFPDCHVGSFAIKSLRKLTDDELFQYLLQLVQVLKYESYLDCELTKFLLDRALANRKIGHFLFWHLRSEMHVPSVALRFGLILEAYCRGSTHHMKVLMKQGEALSKLKALNDFVKLSSQKTPKPQTKELMHLCMRQEAYLEALSHLQSPLDPSTLLAEVCVEQCTFMDSKMKPLWIMYSNEEAGSGGSVGIIFKNGDDLRQDMLTLQMIQLMDVLWKQEGLDLRMTPYGCLPTGDRTGLIEVVLRSDTIANIQLNKSNMAATAAFNKDALLNWLKSKNPGEALDRAIEEFTLSCAGYCVATYVLGIGDRHSDNIMIRESGQLFHIDFGHFLGNFKTKFGINRERVPFILTYDFVHVIQQGKTNNSEKFERFRGYCERAYTILRRHGLLFLHLFALMRAAGLPELSCSKDIQYLKDSLALGKTEEEALKHFRVKFNEALRESWKTKVNWLAHNVSKDNRQ
# Variants of: B1
# Conditions: with p85a_human PIK3R1, P27986
# p85a_human PIK3R1, P27986, sequence (P27986 whole entry): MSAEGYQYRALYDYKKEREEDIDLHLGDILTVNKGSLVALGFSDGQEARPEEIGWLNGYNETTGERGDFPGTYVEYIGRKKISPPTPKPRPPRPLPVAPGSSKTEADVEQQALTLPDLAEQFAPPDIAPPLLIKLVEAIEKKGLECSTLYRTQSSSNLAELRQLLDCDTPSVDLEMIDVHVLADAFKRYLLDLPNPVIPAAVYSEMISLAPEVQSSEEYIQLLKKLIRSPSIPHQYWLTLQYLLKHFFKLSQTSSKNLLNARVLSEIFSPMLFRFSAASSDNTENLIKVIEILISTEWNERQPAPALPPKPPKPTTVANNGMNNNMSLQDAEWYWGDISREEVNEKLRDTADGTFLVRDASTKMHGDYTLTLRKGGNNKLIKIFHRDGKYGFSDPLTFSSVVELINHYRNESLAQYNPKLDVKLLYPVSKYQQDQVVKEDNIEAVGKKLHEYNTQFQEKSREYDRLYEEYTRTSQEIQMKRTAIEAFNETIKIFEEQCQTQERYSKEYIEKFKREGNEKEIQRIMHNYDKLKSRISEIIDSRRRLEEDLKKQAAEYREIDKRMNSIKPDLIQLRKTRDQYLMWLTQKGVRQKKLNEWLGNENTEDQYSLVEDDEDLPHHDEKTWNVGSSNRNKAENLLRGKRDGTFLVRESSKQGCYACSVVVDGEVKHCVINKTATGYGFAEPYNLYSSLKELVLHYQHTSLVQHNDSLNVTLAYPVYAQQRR
row,effect of a mutation on the interaction,Variant
1,with no effect,E525K
2,with no effect,E1021K
